These results are taken from publication PMC1669734 (Nucleic Acids Research, 2006).

This assay has as its target T1, 35S-MCM (T.acidophilum MCM labeled with 35S-Met) (Thermoplasma acidophilum, UniProt Q9HK10 1-698, 35S-Met).
T1 sequence (looked up): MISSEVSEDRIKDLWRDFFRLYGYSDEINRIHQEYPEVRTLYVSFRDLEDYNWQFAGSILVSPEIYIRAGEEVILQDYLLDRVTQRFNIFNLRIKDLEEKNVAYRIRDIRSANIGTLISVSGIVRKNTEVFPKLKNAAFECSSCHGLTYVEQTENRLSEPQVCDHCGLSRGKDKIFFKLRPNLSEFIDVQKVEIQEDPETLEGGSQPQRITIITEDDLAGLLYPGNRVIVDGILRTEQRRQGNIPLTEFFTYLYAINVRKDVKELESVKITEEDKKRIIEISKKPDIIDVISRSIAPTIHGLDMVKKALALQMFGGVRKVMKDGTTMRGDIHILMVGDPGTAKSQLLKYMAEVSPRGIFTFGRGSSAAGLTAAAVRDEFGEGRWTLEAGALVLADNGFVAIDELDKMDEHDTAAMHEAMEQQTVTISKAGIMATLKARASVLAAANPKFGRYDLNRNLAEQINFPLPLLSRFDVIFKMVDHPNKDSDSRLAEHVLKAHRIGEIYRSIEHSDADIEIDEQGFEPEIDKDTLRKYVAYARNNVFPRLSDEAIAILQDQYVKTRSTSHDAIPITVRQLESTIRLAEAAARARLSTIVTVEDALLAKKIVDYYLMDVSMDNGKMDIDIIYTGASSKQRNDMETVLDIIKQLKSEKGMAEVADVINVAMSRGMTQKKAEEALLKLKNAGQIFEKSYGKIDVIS
In words: pull-down.

B1: T.acidophilum Cdc6-2 (Ta0636), C-terminal six His-tag (natural protein, Thermoplasma acidophilum, UniProt Q9HKG3 1-404, looked up)
chain: MDNPFARFAGTRTIQANLSLLEENYVPDSFPHRENQINEMVTILSSIMRGSRPSNIIVYGKTGTGKTSTTKYVTKMLVEAASNVSVVYVNCEIYDSPYSILVAIANSAGEEKIPELGWPIDRIYRETVERVEKTGKFFIIILDEMDRLIKKNGGDSLYVLLKLMTDVDSVRVSMIGITNDTTVLENIDARIKSRLNQESIVFPPYNASEIRDIISSRLDKVLGPGVVDDTAINLCAAIGAQEHGDARKAIDLMRIAIEIAIRENRNKITENEIYEARERYEMNVLREAISTLPLHSKIVLLSAVVTQEIEPNSVITGEIYENYRRICDDLGFSPLSPRRISDLLTELADYGLLVMDDRNMGKYGRTRSFSVVHQAETIKKYLLEDENLSMFKSSKMPKQTRFDT
Turning to B1, the binding result is listed as “binds”.
